Measurements published in patent US20250332277A1 (Eli Lilly, published 2025).

Legend:
[1] = target: T1, human PTK-7 on cells (OV90-PTK-7, NCI-H446, OVCAR-3) (human, UniProt Q13308 31-1070); assay: flow cytometry, OV90-PTK-7 cells; against cofetuzumab
T1 construct: OV90-PTK-7 is an ovarian tumour line engineered to overexpress human PTK-7; NCI-H446 and OVCAR-3 express it endogenously; also called PTK-7 receptor; CCK-4
T1 sequence: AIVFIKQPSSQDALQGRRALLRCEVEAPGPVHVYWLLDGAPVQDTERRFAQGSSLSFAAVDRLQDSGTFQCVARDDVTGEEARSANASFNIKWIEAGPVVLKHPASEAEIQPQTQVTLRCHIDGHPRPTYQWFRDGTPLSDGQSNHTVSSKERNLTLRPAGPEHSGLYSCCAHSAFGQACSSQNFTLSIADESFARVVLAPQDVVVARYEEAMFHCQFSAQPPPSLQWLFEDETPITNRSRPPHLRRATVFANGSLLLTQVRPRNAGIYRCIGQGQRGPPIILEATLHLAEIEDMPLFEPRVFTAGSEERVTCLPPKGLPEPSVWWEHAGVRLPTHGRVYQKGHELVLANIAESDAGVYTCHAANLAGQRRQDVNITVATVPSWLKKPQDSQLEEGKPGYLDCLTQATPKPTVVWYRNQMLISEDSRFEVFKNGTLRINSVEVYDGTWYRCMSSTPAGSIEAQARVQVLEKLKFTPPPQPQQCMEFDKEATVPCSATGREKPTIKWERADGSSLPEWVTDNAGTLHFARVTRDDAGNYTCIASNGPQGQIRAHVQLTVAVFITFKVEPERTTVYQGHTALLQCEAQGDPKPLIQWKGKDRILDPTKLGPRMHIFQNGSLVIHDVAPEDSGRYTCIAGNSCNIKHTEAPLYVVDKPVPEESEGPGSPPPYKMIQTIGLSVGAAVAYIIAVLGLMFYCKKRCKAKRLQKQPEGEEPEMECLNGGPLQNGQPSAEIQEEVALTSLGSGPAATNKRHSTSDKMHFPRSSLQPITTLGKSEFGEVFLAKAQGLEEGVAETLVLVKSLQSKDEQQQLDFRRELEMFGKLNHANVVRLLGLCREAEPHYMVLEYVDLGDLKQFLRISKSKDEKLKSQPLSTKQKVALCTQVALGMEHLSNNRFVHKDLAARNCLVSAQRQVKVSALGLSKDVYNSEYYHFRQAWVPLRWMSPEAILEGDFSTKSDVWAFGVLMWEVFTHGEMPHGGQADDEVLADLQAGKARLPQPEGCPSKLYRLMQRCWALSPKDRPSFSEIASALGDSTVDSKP
Protocol: (§1) OV90-PTK-7, overexpressing engineered ovarian tumor line representing high expression, NCI-H446 human lung cancer cells representing medium endogenous expression and OVCAR-3 human ovarian cancer cells representing low endogenous expression. […] OV90 parental cells and Namalwa-luc-GFP cells were selected as the PTK-7 negative cell lines. Antibody binding was quantified via flow cytometry and both the EC₅₀ of the binding curves and the maximum binding MFI for each antibody were recorded.
(§2) Cells were dissociated using non-enzymatic dissociation buffer for 5 min at 37° C. Cells were counted and aliquoted to a V-bottom polypropylene 96-well plate at 10⁵ cells/well. Cells were centrifuged at 1800 rpm×3 min and the supernatant discarded. An 11-point antibody dilution series was prepared in assay buffer (1×PBS containing 5% FBS) starting at 300 nM and diluting 1:4 down. The dilution series was added to cells at 100 μL/well and mixed by pipetting. Several untreated control wells/cell lines were prepared in assay buffer alone. Cells and antibodies were incubated at 4° C. on an orbital shaker for 1 hour. After incubation, the assay plates were centrifuged and washed twice with 300 μL/well of assay buffer. Cell pellets were then stained with a 1:500 dilution of Alexa647 conjugated mouse anti-human IgG secondary antibody in assay buffer, at 100 μL/well. Assay plates were incubated shaking in the dark at 4° C. for 1 hour. After incubation, plates were centrifuged, and the cells were washed twice with 300 μL/well of assay buffer. A 1:2000 dilution of Zombie Green viability marker in 1×PBS was aliquoted to the cells at 100 μL/well and plates were incubated in the dark for 10 min shaking at room temperature. Cell pellets were then washed 1× with assay buffer and fixed with 200 μL/well of 4% paraformaldehyde in 1×PBS in the dark at room temperature for 15 min. […]
(§3) Cells were acquired on an Attune Cytpix Cytometer and FCS files generated using Attune™ Cytometric Software (v. 6.0.1). FCS files were then analyzed on FlowJo (v10.8.1).

[2] = target: T1, human PTK-7 on cells (OV90-PTK-7, …); assay: flow cytometry, OV90-PTK-7 cells
Protocol: as §1
(§4) Cells were dissociated using non-enzymatic dissociation buffer for 5 min at 37° C. Cells were counted and aliquoted to a V-bottom polypropylene 96-well plate at 10⁵ cells/well. Cells were centrifuged at 1800 rpm×3 min and the supernatant discarded. An 11-point antibody dilution series was prepared in assay buffer (1×PBS containing 5% FBS) starting at 300 nM and diluting 1:4 down. The dilution series was added to cells at 100 μL/well and mixed by pipetting. Several untreated control wells/cell lines were prepared in assay buffer alone. Cells and antibodies were incubated at 4° C. on an orbital shaker for 1 hour. After incubation, the assay plates were centrifuged and washed twice with 300 μL/well of assay buffer. Cell pellets were then stained with a 1:500 dilution of Alexa647 conjugated mouse anti-human IgG secondary antibody in assay buffer, at 100 μL/well. Assay plates were incubated shaking in the dark at 4° C. for 1 hour. After incubation, plates were centrifuged, and the cells were washed twice with 300 μL/well of assay buffer. A 1:2000 dilution of Zombie Green viability marker in 1×PBS was aliquoted to the cells at 100 μL/well and plates were incubated in the dark for 10 min shaking at room temperature. Cell pellets were then washed 1× with assay buffer and fixed with 200 μL/well of 4% paraformaldehyde in 1×PBS in the dark at room temperature for 15 min. Cells were centrifuged and washed before resuspending in 100 μL of assay buffer for acquisition on Attune Cytpix Cytometer.
as §3

[3] = target: T1, human PTK-7 on cells (OV90-PTK-7, …); assay: flow cytometry, OVCAR3 cells
Protocol: as §1, §4, §3

[4] = target: T1, human PTK-7 on cells (OV90-PTK-7, …); assay: flow cytometry, OVCAR3 cells; against cofetuzumab
Protocol: as §1, §2, §3

[5] = target: T1, human PTK-7 on cells (OV90-PTK-7, …); assay: flow cytometry, NCI-H446 cells; against cofetuzumab
Protocol: as §1, §2, §3

[6] = target: T1, human PTK-7 on cells (OV90-PTK-7, …); assay: flow cytometry, NCI-H446 cells
Protocol: as §1, §4, §3

[7] = target: T1, human PTK-7 on cells (OV90-PTK-7, …); assay: cell-based or functional assay
[8] = target: T2, recombinant human PTK7 (Acro Biosystems Cat. No. PT7-H52H3) (human, UniProt Q13308 31-704); assay: SPR, Biacore 8K+, ADC captured by anti-human Fc, human PTK7 as analyte, 37 C, 1:1 model
T2 construct: Bought recombinant protein; also called human PTK7 analyte
T2 sequence: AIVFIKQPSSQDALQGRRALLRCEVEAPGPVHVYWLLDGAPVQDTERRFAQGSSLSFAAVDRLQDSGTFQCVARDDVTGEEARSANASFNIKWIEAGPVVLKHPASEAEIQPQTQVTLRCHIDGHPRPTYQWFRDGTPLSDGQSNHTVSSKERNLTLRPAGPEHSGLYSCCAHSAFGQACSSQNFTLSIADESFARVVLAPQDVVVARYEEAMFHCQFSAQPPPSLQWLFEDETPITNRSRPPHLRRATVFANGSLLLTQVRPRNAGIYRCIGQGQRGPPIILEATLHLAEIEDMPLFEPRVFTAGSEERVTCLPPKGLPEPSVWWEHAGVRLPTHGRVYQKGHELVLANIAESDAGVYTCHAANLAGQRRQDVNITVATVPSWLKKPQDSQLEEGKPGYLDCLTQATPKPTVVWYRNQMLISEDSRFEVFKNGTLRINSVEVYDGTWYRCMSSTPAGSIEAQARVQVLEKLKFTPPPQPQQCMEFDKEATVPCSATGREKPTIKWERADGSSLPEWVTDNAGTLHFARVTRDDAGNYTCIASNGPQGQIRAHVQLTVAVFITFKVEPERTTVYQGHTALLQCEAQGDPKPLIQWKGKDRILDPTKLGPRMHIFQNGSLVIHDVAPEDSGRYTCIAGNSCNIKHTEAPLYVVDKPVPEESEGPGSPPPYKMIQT
Protocol: A Biacore 8K+ instrument (Cytiva, Marlborough, MA) was used to determine kinetics and affinity parameters for the binding interactions of ADCs binding to recombinant human PTK7 (Acro Biosystems Cat. No. PT7-H52H3, Newark, DE).
In each analysis cycle, a different ADC was captured on flow cell 2 of each channel by injecting a 5 μg/mL solution at 10 μL/min for 2 minutes. After capture, the same analyte was injected on flow cells 1 and 2 in all 8 channels for 2 minutes at 30 μL/min and dissociation was monitored for 10 minutes. After dissociation, all surfaces were regenerated with three consecutive 1-minute injections of 75 mM phosphoric acid at 10 μL/min. ADC capture and analyte cycles were repeated to obtain human PTK7 analyte binding of each ADC at analyte concentrations of 0, 2.47, 7.41, 22.2, 66.7, 200, and 600 nMs.
Sensorgram data were reference subtracted and blank subtracted, then globally fit with the default 1:1 binding model in Biacore Insight Evaluation Software v3.0.12.15655, as shown in Table 4.

B1: Ab1 (antibody, human IgG1, kappa, L234A L235A, V domains shown)
VH: EVQLVESGGGLVKPGGSLRLSCAASGFTFSSYIMNWVRQAPGKGLEWVSSISSSSTFIYYADSVKGRFTISRDNAKNSLYLQMNSLRAEDTAVYYCAKGFDYWGQGTLVTVSS
VL: DIQLTQSPSFLSASVGDRVTITCRASQDISSYLVWYQQKPGKAPKLLIYAASTLQSGVPSRFSGSGSGTEFTLTISSLQPEDFATYYCQQLNTYPRTFGQGTKVEIKR
notes: Fully human antibody; also called Antibody 1; PTK-7 Antibody Ab1
% of Cofetuzumab (Average Max MFI) [1]: 96.5%
Average Max MFI [2]: 66100 MFI
EC50 [2]: 1.25 nM
Average Max MFI [3]: 15700 MFI
EC50 [3]: 2.81 nM
% of Cofetuzumab (Average Max MFI) [4]: 71.6%
% of Cofetuzumab (Average Max MFI) [5]: 86.3%
Average Max MFI [6]: 23200 MFI
EC50 [6]: 0.7 nM

B2: Ab1-PSAR10-VA-exatecan (other)
heavy: EVQLVESGGGLVKPGGSLRLSCAASGFTFSSYIMNWVRQAPGKGLEWVSSISSSSTFIYYADSVKGRFTISRDNAKNSLYLQMNSLRAEDTAVYYCAKGFDYWGQGTLVTVSSASTKGPSVFPLAPSSKSTSGGTAALGCLVKDYFPEPVTVSWNSGALTSGVHTFPAVLQSSGLYSLSSVVTVPSSSLGTQTYICNVNHKPSNTKVDKRVEPKSCDKTHTCPPCPAPEAAGGPSVFLFPPKPKDTLMISRTPEVTCVVVSVSHEDPEVKFNWYVDGVEVHNAKTKPREEQYNSTYRVVSVLTVLHQDWLNGKEYKCKVSNKALPAPIEKTISKAKGQPREPQVYTLPPSREEMTKNQVSLTCLVKGFYPSDIAVEWESNGQPENNYKTTPPVLDSDGSFFLYSKLTVDKSRWQQGNVFSCSVMHEALHNHYTQKSLSLSPGK
light: DIQLTQSPSFLSASVGDRVTITCRASQDISSYLVWYQQKPGKAPKLLIYAASTLQSGVPSRFSGSGSGTEFTLTISSLQPEDFATYYCQQLNTYPRTFGQGTKVEIKRTVAAPSVFIFPPSDEQLKSGTASVVCLLNNFYPREAKVQWKVDNALQSGNSQESVTEQDSKDSTYSLSSTLTLSKADYEKHKVYACEVTHQGLSSPVTKSFNRGEC
modifications: PSAR10-VA-exatecan linker-payload (Formula XV) on cysteine thiols after full reduction of the antibody (DAR 8 procedure); positions not stated for this ADC
notes: Antibody-drug conjugate of Ab1; also called Ab1-VA-Exatecan
Cytotoxicity IC50, OVCAR-3 cells (CellTiter-Glo, 7 days) [7]: 4 nM
Kd [8]: 28.9 nM
koff [8]: 0.0342 s⁻¹
kon [8]: 1.19e+06 M⁻¹ s⁻¹

B3: Ab2 (antibody, human IgG1, kappa, L234A L235A, V domains shown)
VH: QVQLQESGPGLVKPSETLSLTCTVSGGSISTYYWSWIRQPAGKGLEWIGRIYTSGLTNYNPSLKSRVTMSVDTSKNQFSLKLSSVTAADTAVYYCARDPHYYDGSGFDYWGQGTLVTVSS
VL: not shown
notes: Fully human antibody; also called Antibody 2
% of Cofetuzumab (Average Max MFI) [1]: 103%
Average Max MFI [2]: 70500 MFI
EC50 [2]: 1.83 nM
Average Max MFI [3]: 19200 MFI
% of Cofetuzumab (Average Max MFI) [4]: 87.7%
% of Cofetuzumab (Average Max MFI) [5]: 97.6%
Average Max MFI [6]: 26200 MFI
EC50 [6]: 0.6 nM

B4: Ab4 (antibody, human IgG1, kappa, L234A L235A, V domains shown)
VH: EVQLVESGGGLVKPGGSLRLSCAASGFTFSSYSMNWVRQAPGKGLEWVSSIDSSSSFIYYADSVKGRFTISRDNAKNSLYLQMNSLRAEDTAVYYCARGTGLFDFWGQGTLVTVSS
VL: EIVLTQSPGTLSLSPGERATLSCRASQSFSSSYLAWYQQKPGQAPRLLIYGASSRATGIPDRFSGSGSGTDFTLTISRLEPEDFAVYYCQQYGRTPWTFGQGTKVEIKR
notes: Fully human antibody; also called Antibody 4; PTK-7 Antibody Ab4
% of Cofetuzumab (Average Max MFI) [1]: 102%
Average Max MFI [2]: 69900 MFI
EC50 [2]: 1.28 nM
Average Max MFI [3]: 16400 MFI
EC50 [3]: 0.95 nM
% of Cofetuzumab (Average Max MFI) [4]: 75%
% of Cofetuzumab (Average Max MFI) [5]: 97.4%
Average Max MFI [6]: 26100 MFI
EC50 [6]: 0.54 nM

B5: Cofetuzumab (antibody, V domains shown)
VH: QVQLVQSGPEVKKPGASVKVSCKASGYTFTDYAVHWVRQAPGKRLEWIGVISTYNDYTYNNQDFKGRVTMTRDTSASTAYMELSRLRSEDTAVYYCARGNSYFYALDYWGQGTSVTVSS
VL: EIVLTQSPATLSLSPGERATLSCRASESVDSYGKSFMHWYQQKPGQAPRLLIYRASNLESGIPARFSGSGSGTDFTLTISSLEPEDFAVYYCQQSNEDPWTFGGGTKLEIK
Average Max MFI [2]: 68500 MFI
EC50 [2]: 1.41 nM
Average Max MFI [3]: 21900 MFI
EC50 [3]: 0.7 nM
Average Max MFI [6]: 26800 MFI
EC50 [6]: 0.54 nM
